In this experiment the target is KDR (VEGF receptor, flk-1/KDR, VEGFR2) (human) (UniProt P35968). Kind of experiment: in vitro receptor saturation; format not stated.

For IMC-1C11 (antibody), the concentration at 50% saturation of VEGF receptors worked out at 0.2 µg/mL and the concentration at 100% saturation of VEGF receptors was 3 µg/mL.

These data come from patent US20100260776A1.
